# In patent publication US20250346643A1, “TROPOMYOSIN KINASE RECEPTOR (TRK) LIGANDS AS THERAPEUTICS TO SUPPORT LIVER REGENERATION” (Vanderbilt University, priority 2024, published 2025):
# B1: BDNF: brain-derived neurotrophic factor, neurotrophin specific for TrkB (protein)
# chain: HSDPARRGELSVCDSISEWVTAADKKTAVDMSGGTVTVLEKVPVSKGQLKQYFYETKCNPMGYTKEGCRGIDKRHWNSQCRTTQSYVRALTMDSKKRIGWRFIRIDTSCVCTLTIKRGR
# B2: HGF: hepatocyte growth factor, complete hepatocyte mitogen used as comparator (protein, UniProt Q08048 33-495; Q08048 496-728, looked up)
# Hepatocyte growth factor …: QKKRRNTLHEFKKSAKTTLTKEDPLLKIKTKKVNSADECANRCIRNRGFTFTCKAFVFDKSRKRCYWYPFNSMSSGVKKGFGHEFDLYENKDYIRNCIIGKGGSYKGTVSITKSGIKCQPWNSMIPHEHSFLPSSYRGKDLQENYCRNPRGEEGGPWCFTSNPEVRYEVCDIPQCSEVECMTCNGESYRGPMDHTESGKTCQRWDQQTPHRHKFLPERYPDKGFDDNYCRNPDGKPRPWCYTLDPDTPWEYCAIKTCAHSAVNETDVPMETTECIQGQGEGYRGTSNTIWNGIPCQRWDSQYPHKHDITPENFKCKDLRENYCRNPDGAESPWCFTTDPNIRVGYCSQIPKCDVSSGQDCYRGNGKNYMGNLSKTRSGLTCSMWDKNMEDLHRHIFWEPDASKLNKNYCRNPDDDAHGPWCYTGNPLIPWDYCPISRCEGDTTPTIVNLDHPVISCAKTKQLR
# Hepatocyte growth factor beta …: VVNGIPTQTTVGWMVSLKYRNKHICGGSLIKESWVLTARQCFPARNKDLKDYEAWLGIHDVHERGEEKRKQILNISQLVYGPEGSDLVLLKLARPAILDNFVSTIDLPSYGCTIPEKTTCSIYGWGYTGLINADGLLRVAHLYIMGNEKCSQHHQGKVTLNESELCAGAEKIGSGPCEGDYGGPLICEQHKMRMVLGVIVPGRGCAIPNRPGIFVRVAYYAKWIHKVILTYKL
# Assays:
# [1] = tested on: mouse passaged primary human hepatocytes; assay: EdU incorporation in mouse passaged primary human hepatocytes (mpPHH); format: cell-based; conditions: 20 ng/ml each, 4 hours (FIG. 19E-F)
# Method: Mouse passaged primary human hepatocytes. Mouse-passaged primary human hepatocytes (mpPHHs) were collected as previously described (Michailidis et al., Proc Natl Acad Sci USA. 2020; 117(3): 1678-1688) and cultured in hepatocyte culture media (CC-3198, Lonza, Basel, Switzerland) in collagen-coated chamber slides. Three days before treatment, mpPHH were incubated in William's E media (with L-glutamine). Vehicle, NTF3, BDNF, or HGF (20 ng/ml each) were diluted in William's E (without L-glutamine) and EdU (EdU Cell Proliferation kit, Alexa Flour 555, Thermo Fisher Scientific, Waltham, MA; C10638) was added to each well. mpPHH were incubated for 4 hours and the experiment terminated by fixing the mpPHH in 4% paraformaldehyde/PFA and permeablized with Triton X-100. Click-iT™ EdU staining was then performed according to the manufacturer's instructions. mpPHH were mounted with Flouromount G and imaged with Nikon confocal microscope. 5-15 images per treatment per experiment were randomly taken and EdU positive nuclei quantified.
# EdU incorporation and imaging in HDO and mpPHH. A chamber slide was pre-chilled on ice and coated with Matrigel®. Chamber slide was then incubated for 3 min at 37° C. to solidify and organoids plated in 0.02% Matrigel®/complete media into coated chamber slides. Organoids were grown in complete organoid growth media (OGM) for approximately 4 days followed by incubation in organoid differentiation media (ODM) for another 4 days. Organoids were changed to William's E medium 1 day prior to experiment. Vehicle or NTF3, BDNF, HGF (20 ng/ml final concentration each) or Taletrectinib (Fisher Scientific, Waltham, MA; 502030245, final concentration 10 nM) were diluted in William's E (without L-glutamine) and added to organoids. CLICK-iT™ EdU (EdU final concentration […] incubated together with the vehicle, NTF3, BDNF or HGF). […] Five to fifteen images of random high-power fields were obtained per experiment per treatment and EdU+/Hoechst 33342+ nuclei versus all Hoechst 33342+ nuclei quantified.
# [2] = tested on: hepatocytic differentiated human ductal organoids; assay: EdU incorporation in hepatocytic differentiated human ductal organoids (HDO); format: cell-based; conditions: for EdU+ cells compared to vehicle only: 20 ng/ml, 6 hours, William's E without L-glutamine (FIG. 19A-B)
# Method: Human ductal organoids. The normal human liver tissue was obtained through the Cooperative Human Tissue Network (CHTN) at Vanderbilt University Medical Center. The liver was cut into very small pieces in liver digestion medium (Gibco, Waltham, MA; 17703-034). The cell suspension was filtered through a 100-μm cell strainer. The flow through was then centrifuged for 2 min at 100 g, 4° C., and the cell pellet resuspended in ice-cold DMEM (Gibco, Waltham, MA; 11885-084, supplemented by 5% FBS) and centrifuged for 2 min at 300 g. The cell pellet was gently resuspended in Matrigel® (Corning, Corning, NY; 356231) and a […] dome plated in a 24-well plate. The plate was incubated for 10-15 min at 37° C. After solidifying, complete HepatiCult™ Organoid Initiation Medium (OIM) (STEMCELL Technologies, Vancouver, Canada; 100-0384) was added. For passaging, the Matrigel dome was dissociated using TrypLE (Thermo Fisher Scientific, Waltham, MA; 12604013) and incubated at 37° C. for 5 mins. Organoids were washed by resuspending in advanced DMEM/F12 and consecutive resuspension of the organoid pellet. Organoids were resuspended at a 1:10 dilution in Matrigel® and cultured in complete HepatiCult™ Organoid Growth Medium (OGM) (STEMCELL Technologies, Vancouver, Canada; 100-0385) for organoid expansion. For hepatocytic differentiation of hepatic ductal organoids, culture medium was changed to complete HepatiCult™ Organoid Differentiation Medium (ODM) (STEMCELL Technologies, 100-0383) 4 days after passaging. Vehicle, NTF3, BDNF, HGF (20 ng/ml final concentration) or Taletrectinib (Fisher Scientific, Waltham, MA; 502030245, final concentration 10 nM) or torin2 (Fisher Scientific, Waltham, MA; s2817, final concentration 25 nM) were diluted in William's E (without L-glutamine) and added to organoids.
# EdU incorporation and imaging in HDO and mpPHH. A chamber slide was pre-chilled on ice and coated with Matrigel®. Chamber slide was then incubated for 3 min at 37° C. to solidify and organoids plated in 0.02% Matrigel®/complete media into coated chamber slides. Organoids were grown in complete organoid growth media (OGM) for approximately 4 days followed by incubation in organoid differentiation media (ODM) for another 4 days. Organoids were changed to William's E medium 1 day prior to experiment. Vehicle or NTF3, BDNF, HGF (20 ng/ml final concentration each) or Taletrectinib (Fisher Scientific, Waltham, MA; 502030245, final concentration 10 nM) were diluted in William's E (without L-glutamine) and added to organoids. CLICK-iT™ EdU (EdU final concentration […] incubated together with the vehicle, NTF3, BDNF or HGF). After 6 hours, organoids were fixed with 4% paraformaldehyde and permeabilized with 0.5% Triton-X 100. Further processing was performed according to CLICK-ITT EdU manufacturer's instructions. mpPHHs were seeded on collagen coated chamber slides and grown in complete hepatocyte medium (Lonza, Basel, Switzerland). Prior to EdU incorporation assays, mpPHHs were cultured in William's E medium. Vehicle or NTF3, BDNF, HGF (20 ng/ml final concentration each) or Taletrectinib (Fisher Scientific, Waltham, MA; 502030245, final concentration 10 nM) were diluted in William's E (without L-glutamine) and added to mpPHHs. Organoids were imaged in PBS in chamber slides, mpHHs were mounted with fluoromount. Five to fifteen images of random high-power fields were obtained per experiment per treatment and EdU+/Hoechst 33342+ nuclei versus all Hoechst 33342+ nuclei quantified.
Molecule,EdU+ nuclei compared to vehicle only [1],EdU+ cells compared to vehicle only [2],"EdU+ cells compared to vehicle alone, taletrectinib experiment ([2]; NTF3 20 ng/ml (FIG. 19C-D))"
"NTF3: neurotrophin-3, recombinant protein; HSC-derived hepatocyte mitogen, ligand of TRKA, TRKB, TRKC",increased EdU+ nuclei,significantly increased EdU+ cells,significant increase of EdU+ cells
B1,increased EdU+ nuclei,significantly increased EdU+ cells,–
B2,increased EdU+ nuclei,significantly increased EdU+ cells,–
